In one experiment the target is T1, Mcm2 (S. cerevisiae, UniProt P29469 1-868).
T1 sequence: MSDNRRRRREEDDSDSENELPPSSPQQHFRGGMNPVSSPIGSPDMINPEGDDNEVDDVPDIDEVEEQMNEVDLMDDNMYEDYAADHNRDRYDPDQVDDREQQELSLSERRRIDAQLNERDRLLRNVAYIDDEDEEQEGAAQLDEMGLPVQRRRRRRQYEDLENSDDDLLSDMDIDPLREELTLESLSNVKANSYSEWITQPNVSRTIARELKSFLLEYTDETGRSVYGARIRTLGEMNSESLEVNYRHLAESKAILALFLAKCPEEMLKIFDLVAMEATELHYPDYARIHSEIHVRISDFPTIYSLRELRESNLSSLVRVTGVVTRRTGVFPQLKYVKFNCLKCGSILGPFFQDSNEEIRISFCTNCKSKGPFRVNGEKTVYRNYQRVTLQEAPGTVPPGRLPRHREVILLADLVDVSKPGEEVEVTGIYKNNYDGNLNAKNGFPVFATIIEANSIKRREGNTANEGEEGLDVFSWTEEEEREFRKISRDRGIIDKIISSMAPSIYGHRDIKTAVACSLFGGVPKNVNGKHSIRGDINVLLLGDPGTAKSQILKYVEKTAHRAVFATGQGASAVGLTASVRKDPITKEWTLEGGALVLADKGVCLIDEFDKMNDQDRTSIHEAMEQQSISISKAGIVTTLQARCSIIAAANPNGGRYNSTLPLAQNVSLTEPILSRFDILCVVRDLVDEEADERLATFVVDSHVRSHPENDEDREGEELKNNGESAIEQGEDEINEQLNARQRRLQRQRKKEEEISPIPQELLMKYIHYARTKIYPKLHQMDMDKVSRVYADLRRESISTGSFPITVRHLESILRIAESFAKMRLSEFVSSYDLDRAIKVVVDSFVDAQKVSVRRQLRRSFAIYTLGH
The experiment in a line: co-IP.

The next experiment addresses T2, Mcm4 (S. cerevisiae, UniProt P30665 1-933).
T2 sequence: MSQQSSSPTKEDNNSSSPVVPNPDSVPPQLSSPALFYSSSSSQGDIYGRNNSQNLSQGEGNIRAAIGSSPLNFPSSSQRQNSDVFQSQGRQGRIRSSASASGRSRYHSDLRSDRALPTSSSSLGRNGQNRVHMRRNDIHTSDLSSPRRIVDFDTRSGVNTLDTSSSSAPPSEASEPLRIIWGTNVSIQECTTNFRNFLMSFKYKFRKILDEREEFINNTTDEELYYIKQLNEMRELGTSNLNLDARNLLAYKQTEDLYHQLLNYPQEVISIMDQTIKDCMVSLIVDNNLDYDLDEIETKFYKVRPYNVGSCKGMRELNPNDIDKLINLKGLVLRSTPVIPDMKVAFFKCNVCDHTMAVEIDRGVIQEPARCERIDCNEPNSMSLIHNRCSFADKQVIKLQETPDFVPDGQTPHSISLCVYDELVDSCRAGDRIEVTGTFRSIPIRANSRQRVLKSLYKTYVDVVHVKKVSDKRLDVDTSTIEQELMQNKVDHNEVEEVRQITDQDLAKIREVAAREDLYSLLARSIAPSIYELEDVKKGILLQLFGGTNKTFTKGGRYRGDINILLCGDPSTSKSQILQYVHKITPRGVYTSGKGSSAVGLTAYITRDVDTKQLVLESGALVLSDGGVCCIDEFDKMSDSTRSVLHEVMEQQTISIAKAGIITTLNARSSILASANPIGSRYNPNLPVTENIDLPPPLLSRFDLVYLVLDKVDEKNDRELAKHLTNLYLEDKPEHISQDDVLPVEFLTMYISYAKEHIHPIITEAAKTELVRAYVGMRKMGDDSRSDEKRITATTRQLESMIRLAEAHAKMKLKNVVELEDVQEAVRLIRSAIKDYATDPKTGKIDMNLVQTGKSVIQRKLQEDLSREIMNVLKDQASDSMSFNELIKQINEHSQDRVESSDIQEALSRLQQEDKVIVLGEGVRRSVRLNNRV
The experiment in a line: cryo-EM structure.

The target in a further experiment is Mcm3 (S. cerevisiae, UniProt P24279 1-971). The experiment in a line: cryo-EM structure.
Mcm3, sequence (P24279 whole entry): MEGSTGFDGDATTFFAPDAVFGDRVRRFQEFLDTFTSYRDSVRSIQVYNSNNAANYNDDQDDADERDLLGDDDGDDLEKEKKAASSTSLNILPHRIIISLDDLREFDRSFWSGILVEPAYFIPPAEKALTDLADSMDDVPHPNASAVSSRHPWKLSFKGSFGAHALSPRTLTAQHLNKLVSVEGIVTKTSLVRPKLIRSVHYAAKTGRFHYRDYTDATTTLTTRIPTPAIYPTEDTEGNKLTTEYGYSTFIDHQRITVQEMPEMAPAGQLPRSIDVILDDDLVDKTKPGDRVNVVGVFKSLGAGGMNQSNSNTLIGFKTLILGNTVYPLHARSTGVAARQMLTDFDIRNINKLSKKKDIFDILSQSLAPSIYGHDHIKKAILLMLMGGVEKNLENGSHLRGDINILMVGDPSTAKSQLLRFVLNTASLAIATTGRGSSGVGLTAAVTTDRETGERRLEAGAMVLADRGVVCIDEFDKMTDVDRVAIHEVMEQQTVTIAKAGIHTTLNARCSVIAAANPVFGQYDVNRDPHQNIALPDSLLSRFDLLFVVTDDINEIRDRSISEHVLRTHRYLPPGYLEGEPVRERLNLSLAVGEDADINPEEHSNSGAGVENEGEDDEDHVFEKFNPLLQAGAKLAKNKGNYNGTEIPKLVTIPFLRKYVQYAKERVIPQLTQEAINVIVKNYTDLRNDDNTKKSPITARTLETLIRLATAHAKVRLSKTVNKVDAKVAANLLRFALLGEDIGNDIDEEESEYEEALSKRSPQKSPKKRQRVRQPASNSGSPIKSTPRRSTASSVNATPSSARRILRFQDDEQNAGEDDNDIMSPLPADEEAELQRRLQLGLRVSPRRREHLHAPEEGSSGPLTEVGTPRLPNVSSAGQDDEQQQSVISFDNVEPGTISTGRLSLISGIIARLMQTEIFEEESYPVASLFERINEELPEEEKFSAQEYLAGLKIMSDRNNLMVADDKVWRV
In a further experiment the target is T3, Orc1 (S. cerevisiae, UniProt P54784 1-914).
T3 sequence: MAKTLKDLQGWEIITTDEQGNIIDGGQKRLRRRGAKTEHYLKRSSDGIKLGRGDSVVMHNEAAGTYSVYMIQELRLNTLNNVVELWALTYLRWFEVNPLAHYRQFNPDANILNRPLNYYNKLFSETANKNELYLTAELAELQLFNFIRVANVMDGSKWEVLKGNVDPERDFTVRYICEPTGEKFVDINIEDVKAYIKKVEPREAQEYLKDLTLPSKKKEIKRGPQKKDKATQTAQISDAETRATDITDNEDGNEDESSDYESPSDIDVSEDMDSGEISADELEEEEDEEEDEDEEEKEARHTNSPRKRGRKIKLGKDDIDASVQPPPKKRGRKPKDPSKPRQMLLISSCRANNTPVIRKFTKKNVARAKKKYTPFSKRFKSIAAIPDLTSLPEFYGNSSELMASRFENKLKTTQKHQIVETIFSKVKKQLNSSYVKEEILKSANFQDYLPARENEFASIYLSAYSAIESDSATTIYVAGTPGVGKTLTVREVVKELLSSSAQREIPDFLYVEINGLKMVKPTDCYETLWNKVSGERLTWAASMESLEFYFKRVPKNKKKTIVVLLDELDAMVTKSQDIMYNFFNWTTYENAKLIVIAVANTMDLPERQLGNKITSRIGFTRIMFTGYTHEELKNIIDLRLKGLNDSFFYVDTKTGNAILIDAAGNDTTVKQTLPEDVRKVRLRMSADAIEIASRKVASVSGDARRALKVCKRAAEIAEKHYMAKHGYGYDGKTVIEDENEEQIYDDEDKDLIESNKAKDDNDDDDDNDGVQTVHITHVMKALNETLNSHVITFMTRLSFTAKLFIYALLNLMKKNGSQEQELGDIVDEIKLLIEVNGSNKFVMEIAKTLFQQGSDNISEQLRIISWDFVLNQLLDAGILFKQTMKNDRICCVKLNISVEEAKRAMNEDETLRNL
The experiment in a line: cryo-EM structure.

For another experiment, the target named is T4, Orc3 (S. cerevisiae, UniProt P54790 1-616).
T4 sequence: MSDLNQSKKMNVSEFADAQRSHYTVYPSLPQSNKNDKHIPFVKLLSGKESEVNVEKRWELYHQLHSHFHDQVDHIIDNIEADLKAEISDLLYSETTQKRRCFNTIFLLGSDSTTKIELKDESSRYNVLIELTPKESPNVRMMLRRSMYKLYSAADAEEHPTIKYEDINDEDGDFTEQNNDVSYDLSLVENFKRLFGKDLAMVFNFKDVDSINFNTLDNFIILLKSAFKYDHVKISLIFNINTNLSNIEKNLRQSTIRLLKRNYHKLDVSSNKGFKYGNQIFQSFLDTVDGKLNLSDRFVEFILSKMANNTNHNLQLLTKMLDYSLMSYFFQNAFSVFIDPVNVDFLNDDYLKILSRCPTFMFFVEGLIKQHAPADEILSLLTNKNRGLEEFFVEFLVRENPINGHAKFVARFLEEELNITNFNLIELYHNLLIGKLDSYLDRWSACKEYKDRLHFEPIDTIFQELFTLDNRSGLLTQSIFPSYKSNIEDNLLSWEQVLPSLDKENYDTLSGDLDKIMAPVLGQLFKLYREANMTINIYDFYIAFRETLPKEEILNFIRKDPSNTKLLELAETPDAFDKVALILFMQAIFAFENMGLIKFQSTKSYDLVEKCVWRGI
The experiment in a line: cryo-EM structure.

The target in the next experiment is Mcm6 (S. cerevisiae, UniProt P53091 1-1017). The experiment in a line: cryo-EM structure.
Mcm6, sequence (P53091 whole entry): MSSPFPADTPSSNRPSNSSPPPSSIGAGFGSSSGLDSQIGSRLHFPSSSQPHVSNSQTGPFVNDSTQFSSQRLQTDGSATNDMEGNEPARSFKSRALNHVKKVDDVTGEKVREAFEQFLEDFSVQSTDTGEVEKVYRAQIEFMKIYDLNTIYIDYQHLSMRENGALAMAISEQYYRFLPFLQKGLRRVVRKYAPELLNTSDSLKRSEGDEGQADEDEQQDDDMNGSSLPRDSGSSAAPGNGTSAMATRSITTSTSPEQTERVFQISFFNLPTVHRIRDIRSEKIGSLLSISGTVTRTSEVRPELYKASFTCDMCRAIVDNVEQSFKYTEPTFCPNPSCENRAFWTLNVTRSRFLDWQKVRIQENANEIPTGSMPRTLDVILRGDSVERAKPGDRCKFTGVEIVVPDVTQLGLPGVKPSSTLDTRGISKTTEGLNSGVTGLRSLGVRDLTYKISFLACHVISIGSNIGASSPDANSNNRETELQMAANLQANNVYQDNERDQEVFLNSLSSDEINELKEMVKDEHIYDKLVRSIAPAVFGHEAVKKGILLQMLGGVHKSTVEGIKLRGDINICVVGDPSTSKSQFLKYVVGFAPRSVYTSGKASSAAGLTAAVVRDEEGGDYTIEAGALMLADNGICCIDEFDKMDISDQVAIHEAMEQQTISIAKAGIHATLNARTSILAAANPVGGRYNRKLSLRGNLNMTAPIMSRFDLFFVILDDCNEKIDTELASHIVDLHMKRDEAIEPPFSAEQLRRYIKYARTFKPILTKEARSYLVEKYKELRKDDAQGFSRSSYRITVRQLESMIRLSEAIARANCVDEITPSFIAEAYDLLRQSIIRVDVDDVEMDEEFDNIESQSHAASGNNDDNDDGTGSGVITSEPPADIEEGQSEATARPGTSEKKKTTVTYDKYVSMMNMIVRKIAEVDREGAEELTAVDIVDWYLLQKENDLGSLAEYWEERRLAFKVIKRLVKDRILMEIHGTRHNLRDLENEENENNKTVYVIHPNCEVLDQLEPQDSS

B1: Mcm7 (natural protein)
chain: MSAALPSIQLPVDYNNLFNEITDFLVTFKQDTLSSDATRNENEDENLDAENIEQHLLEKGPKYMAMLQKVANRELNSVIIDLDDILQYQNEKFLQGTQADDLVSAIQQNANHFTELFCRAIDNNMPLPTKEIDYKDDVLDVILNQRRLRNERMLSDRTNEIRSENLMDTTMDPPSSMNDALREVVEDETELFPPNLTRRYFLYFKPLSQNCARRYRKKAISSKPLSVRQIKGDFLGQLITVRGIITRVSDVKPAVEVIAYTCDQCGYEVFQEVNSRTFTPLSECTSEECSQNQTKGQLFMSTRASKFSAFQECKIQELSQQVPVGHIPRSLNIHVNGTLVRSLSPGDIVDVTGIFLPAPYTGFKALKAGLLTETYLEAQFVRQHKKKFASFSLTSDVEERVMELITSGDVYNRLAKSIAPEIYGNLDVKKALLLLLVGGVDKRVGDGMKIRGDINVCLMGDPGVAKSQLLKAICKISPRGVYTTGKGSSGVGLTAAVMKDPVTDEMILEGGALVLADNGICCIDEFDKMDESDRTAIHEVMEQQTISISKAGINTTLNARTSILAAANPLYGRYNPRLSPLDNINLPAALLSRFDILFLMLDIPSRDDDEKLAEHVTYVHMHNKQPDLDFTPVEPSKMREYIAYAKTKRPVMSEAVNDYVVQAYIRLRQDSKREMDSKFSFGQATPRTLLGIIRLSQALAKLRLADMVDIDDVEEALRLVRVSKESLYQETNKSKEDESPTTKIFTIIKKMLQETGKNTLSYENIVKTVRLRGFTMLQLSNCIQEYSYLNVWHLINEGNTLKFVDDGTMDTDQEDSLVSTPKLAPQTTASANVSAQDSDIDLQDA
B1: the binding result with Mcm2, in the experiment with Mcm4 and with Mcm3 was “binds” in each case.

B2: Orc4 (natural protein)
chain: MTISEARLSPQVNLLPIKRHSNEEVEETAAILKKRTIDNEKCKDSDPGFGSLQRRLLQQLYGTLPTDEKIIFTYLQDCQQEIDRIIKQSIIQKESHSVILVGPRQSYKTYLLDYELSLLQQSYKEQFITIRLNGFIHSEQTAINGIATQLEQQLQKIHGSEEKIDDTSLETISSGSLTEVFEKILLLLDSTTKTRNEDSGEVDRESITKITVVFIFDEIDTFAGPVRQTLLYNLFDMVEHSRVPVCIFGCTTKLNILEYLEKRVKSRFSQRVIYMPQIQNLDDMVDAVRNLLTVRSEISPWVSQWNETLEKELSDPRSNLNRHIRMNFETFRSLPTLKNSIIPLVATSKNFGSLCTAIKSCSFLDIYNKNQLSNNLTGRLQSLSDLELAILISAARVALRAKDGSFNFNLAYAEYEKMIKAINSRIPTVAPTTNVGTGQSTFSIDNTIKLWLKKDVKNVWENLVQLDFFTEKSAVGLRDNATAAFYASNYQFQGTMIPFDLRSYQMQIILQELRRIIPKSNMYYSWTQL
For B2, in the experiment with Orc1, the binding result is “binds”.

B3: Cdc6 (natural protein)
chain: MSAIPITPTKRIRRNLFDDAPATPPRPLKRKKLQFTDVTPESSPEKLQFGSQSIFLRTKALLQKSSELVNLNSSDGALPARTAEYEQVMNFLAKAISEHRSDSLYITGPPGTGKTAQLDMIIRQKFQSLPLSLSTPRSKDVLRHTNPNLQNLSWFELPDGRLESVAVTSINCISLGEPSSIFQKIFDSFQDLNGPTLQIKNMQHLQKFLEPYHKKTTFVVVLDEMDRLLHANTSETQSVRTILELFLLAKLPTVSFVLIGMANSLDMKDRFLSRLNLDRGLLPQTIVFQPYTAEQMYEIVIQKMSSLPTIIFQPMAIKFAAKKCAGNTGDLRKLFDVLRGSIEIYELEKRFLLSPTRGSLNSAQVPLTPTTSPVKKSYPEPQGKIGLNYIAKVFSKFVNNNSTRTRIAKLNIQQKLILCTIIQSLKLNSDATIDESFDHYIKAITKTDTLAPLQRNEFLEICTILETCGLVSIKKTKCKGKTKRFVDKIDVDLDMREFYDEMTKISILKPFLH
As to B3, the binding result with Orc3 and with Orc1 was “binds” each time.

B4: Cdt1 (natural protein)
chain: MSGTANSRRKEVLRVPVIDLNRVSDEEQLLPVVRAILLQHDTFLLKNYANKAVLDALLAGLTTKDLPDTSQGFDANFTGTLPLEDDVWLEQYIFDTDPQLRFDRKCRNESLCSIYSRLFKLGLFFAQLCVKSVVSSAELQDCISTSHYATKLTRYFNDNGSTHDGADAGATVLPTGDDFQYLFERDYVTFLPTGVLTIFPCAKAIRYKPSTMATTDNSWVSIDEPDCLLFHTGTLLARWSQGMHTTSPLQIDPRANIVSLTIWPPLTTPISSKGEGTIANHLLEQQIKAFPKVAQQYYPRELSILRLQDAMKFVKELFTVCETVLSLNALSRSTGVPPELHVLLPQISSMMKRKIVQDDILKLLTIWSDAYVVELNSRGELTMNLPKRDNLTTLTNKSRTLAFVERAESWYQQVIASKDEIMTDVPAFKINKRRSSSNSKTVLSSKVQTKSSNANALNNSRYLANSKENFMYKEKMPDSQANLMDRLRERERRSAALLSQRQKRYQQFLAMKMTQVFDILFSLTRGQPYTETYLSSLIVDSLQDSNNPIGTKEASEILAGLQGILPMDISVHQVDGGLKVYRWNSLDKNRFSKLLQIHKSKQQD
Take B4: in the experiment with Mcm6, the binding result was “binds”.

(Values after paper PMC3735830 (Nature structural & molecular biology, 2013).)
